Laboratory results: patent US20130303441A1 (YEDA RESEARCH AND DEVELOPMENT, published 2013)
Square brackets hold non-standard residues; d marks the D form. Ends that are not written are not given here. pS = N[C@@H](COP(=O)(O)O)C(=O)O

Molecular target: wild-type (WT) GSK-3β (human, UniProt P49841 1-420, limits assumed)
Assay: cell-based or functional assay

wild-type (WT) GSK-3β, sequence (P49841 other isoform, or with tags, fused parts or gaps limits assumed): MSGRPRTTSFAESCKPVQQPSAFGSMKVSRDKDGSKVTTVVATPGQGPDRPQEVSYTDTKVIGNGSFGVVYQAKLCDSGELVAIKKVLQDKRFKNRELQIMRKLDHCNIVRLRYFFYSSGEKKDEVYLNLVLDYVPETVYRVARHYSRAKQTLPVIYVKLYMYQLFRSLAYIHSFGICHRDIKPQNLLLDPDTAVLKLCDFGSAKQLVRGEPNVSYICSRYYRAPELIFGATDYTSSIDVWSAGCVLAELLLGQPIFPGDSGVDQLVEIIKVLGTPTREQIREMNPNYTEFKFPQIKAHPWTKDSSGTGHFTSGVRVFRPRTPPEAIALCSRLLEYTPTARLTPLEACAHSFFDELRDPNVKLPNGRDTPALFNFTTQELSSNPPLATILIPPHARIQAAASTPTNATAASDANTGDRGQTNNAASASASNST

IC50, in vitro kinase assay: ~150 µM
in vitro kinase assays with GSK-3β in the presence of L803 or L803F (200 µM each); inhibition relative to L803: ~50 % relatively to L803
Binder: KEAPPAPPQ[pS]PF [L803F, Lys-Glu-Ala-Pro-Pro-Ala-Pro-Pro-Gln-phosphorylated Ser-Pro-Phe]
